In one experiment the target is Sec61β (canine (endogenous in MDCK), UniProt P60467 1-96). Description: FRET or BRET.
The next experiment has as its target Sec61α (canine (endogenous in MDCK), UniProt P38377 1-476). Description: FRET or BRET. A general note: BRET reads energy transfer from a luciferase to a nearby fluorophore.

Sequence of Sec61β (P60467 whole entry): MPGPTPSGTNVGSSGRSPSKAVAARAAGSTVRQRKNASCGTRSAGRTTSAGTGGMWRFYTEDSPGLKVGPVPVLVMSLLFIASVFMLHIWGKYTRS
Sequence of Sec61α (P38377 whole entry): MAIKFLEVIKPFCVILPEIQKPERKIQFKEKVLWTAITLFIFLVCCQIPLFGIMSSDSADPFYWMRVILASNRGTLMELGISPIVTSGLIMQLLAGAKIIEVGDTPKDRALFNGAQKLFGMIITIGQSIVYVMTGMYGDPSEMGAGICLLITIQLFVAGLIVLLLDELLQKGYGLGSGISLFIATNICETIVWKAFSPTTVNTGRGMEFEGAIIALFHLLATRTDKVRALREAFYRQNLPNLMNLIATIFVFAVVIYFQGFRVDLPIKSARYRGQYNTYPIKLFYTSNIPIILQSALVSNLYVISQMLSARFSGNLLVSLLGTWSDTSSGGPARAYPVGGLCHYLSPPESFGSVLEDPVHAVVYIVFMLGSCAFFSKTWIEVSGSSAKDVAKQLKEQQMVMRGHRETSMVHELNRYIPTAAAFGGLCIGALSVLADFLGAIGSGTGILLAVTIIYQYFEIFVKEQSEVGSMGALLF

B1: TRAM (natural protein)
chain: MAIRKKSTKSPPVLSHEFILQNHADIVSCVAMVFLLGLMFEITAKASIIFVTLQYNVTLPATEEQATESTSLYYYGIKDLATVFFYMLVAIIIHAIIQEYVLDKINRRMHFSKTKHSKFNESGQLSAFYLFSCIWGTFILISENYISDPTILWRAYPHNLMTFQMKFFYIAQLAYWFHAFPELYFQKTKKEDIPRQLVYIGLYLFHIAGAYLLNLNHLGLVLLVLHYFVEFLFHISRLFYFSDEKYQKGFSLWAVLFVLGRLLTLILSVLTVGFGLARAENQKLDFSAGNFNVLAVRIAVLASICITQAFMMWKFINFQLRRWREHSTFQAPVVKKKPTVTKGRSSRKGTENGVNGTVTSNGADSPRNRKEKSS
For B1, in the experiment with Sec61β, the “FRET efficiency (pactamycin-treated cells)” value is 10.4%, the “FRET efficiency (puromycin-treated cells)” value amounted to 11.9% and the “FRET efficiency (untreated cells)” value stood at 12.8%. For the same molecule, in the experiment with Sec61α, the “FRET efficiency (pactamycin-treated cells)” value is 19.7%, the “FRET efficiency (puromycin-treated cells)” value amounted to 19.8% and the “FRET efficiency (untreated cells)” value was determined as 17.6%.

B2: SRα (natural protein)
chain: MLDFFTIFSKGGLVLWCFQGVSDSCTGPVNALIRSVLLQERGGNNSFTHEALTLKYKLDNQFELVFVVGFQKILTLTYVDKLIDDVHRLFRDKYRTEIQQQSALSLLNGTFDFQNDFLRLLREREESSKIRAPTTMKKFEDSEKAKKPVRSMIETRGEKPKEKAKNSKKKGAKKESSDGPLATGKAVPAEKSGLPAGPENGVELSKEELIRRKREEFIQKHGRGLEKSSKSTKSDAPKEKGKKAPRVWALGGCANKEVLDYSAPTTNGAPDAAPPEDINLIRGTGPGGQLQDLDCSSSDDEETAQNASKPSATKGTLGGMFGMLKGLVGSKSLSREDMESVLDKMRDHLIAKNVAADIAVQLCESVANKLEGKVMGTFSTVTSTVKQALQESLVQILQPQRRVDMLRDIMDAQRHQRPYVVTFCGVNGVGKSTNLAKISFWLLENGFSVLIAACDTFRAGAVEHVRTHTRRLSALHPPEKHAGPTMVQLFEKGYGKDAAGIAMEAIAFARNQGFDVVLVDTAGRMQDNAPLMTALAKLITVNTPDLVLFVGEALVGNEAVDQLVKFNRALADHSMAQTPRLIDGIVLTKFDTIDDKVGAAISMTYITSKPIVFVGTGQTYCDLRSLNAKAVVAALMKA
B2: in the experiment with Sec61β, the “FRET efficiency (pactamycin-treated cells)” value turned out to be 18.8%, the “FRET efficiency (puromycin-treated cells)” value worked out at 17.2% and the “FRET efficiency (untreated cells)” value turned out to be 16%. For the same molecule, in the experiment with Sec61α, the “FRET efficiency (pactamycin-treated cells)” value is 32.2%, the “FRET efficiency (puromycin-treated cells)” value came out at 31.6% and the “FRET efficiency (untreated cells)” value was found to be 34.1%.

B3: TRAPα (natural protein)
chain: GPGGSLVAAQDLTEDEETVEDSIIEDEDDEAEVEEDEPTDLAEDKEEEDVSGEPEASPSADTTILFVKGEDFPANNIVKFLVGFTNKGTEDFIVESLDASFRYPQDYQFYIQNFTALPLNTVVPPQRQATFEYSFIPAEPMGGRPFGLVINLNYKDLNGNVFQDAVFNQTVTIIEREDGLDGETIFMYMFLAGLGLLVVVGLHQLLESRKRKRPIQKVEMGTSSQNDVDMSWIPQETLNQINKASPRRLPRKRAQKRSVGSDE
On to B3, for which, in the experiment with Sec61β, the “FRET efficiency (pactamycin-treated cells)” value turned out to be 11.8%, the “FRET efficiency (puromycin-treated cells)” value came to 11.1% and the “FRET efficiency (untreated cells)” value stood at 13.6%. In the experiment with Sec61α, the “FRET efficiency (pactamycin-treated cells)” value is 15.2%, the “FRET efficiency (puromycin-treated cells)” value was 13.6% and the “FRET efficiency (untreated cells)” value is 18.4%.

(Values after PMC2172055 (The Journal of Cell Biology, 2004).)
